Earlier results in paper PMC4487222.

Biological target: CheY (Thermotoga maritima) (UniProt Q56312)
Sequence (Q56312 whole entry): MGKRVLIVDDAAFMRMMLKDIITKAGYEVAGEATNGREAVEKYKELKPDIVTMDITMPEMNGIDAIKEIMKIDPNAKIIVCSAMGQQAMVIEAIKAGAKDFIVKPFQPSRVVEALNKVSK

Chain of CheA (Q56310 whole entry): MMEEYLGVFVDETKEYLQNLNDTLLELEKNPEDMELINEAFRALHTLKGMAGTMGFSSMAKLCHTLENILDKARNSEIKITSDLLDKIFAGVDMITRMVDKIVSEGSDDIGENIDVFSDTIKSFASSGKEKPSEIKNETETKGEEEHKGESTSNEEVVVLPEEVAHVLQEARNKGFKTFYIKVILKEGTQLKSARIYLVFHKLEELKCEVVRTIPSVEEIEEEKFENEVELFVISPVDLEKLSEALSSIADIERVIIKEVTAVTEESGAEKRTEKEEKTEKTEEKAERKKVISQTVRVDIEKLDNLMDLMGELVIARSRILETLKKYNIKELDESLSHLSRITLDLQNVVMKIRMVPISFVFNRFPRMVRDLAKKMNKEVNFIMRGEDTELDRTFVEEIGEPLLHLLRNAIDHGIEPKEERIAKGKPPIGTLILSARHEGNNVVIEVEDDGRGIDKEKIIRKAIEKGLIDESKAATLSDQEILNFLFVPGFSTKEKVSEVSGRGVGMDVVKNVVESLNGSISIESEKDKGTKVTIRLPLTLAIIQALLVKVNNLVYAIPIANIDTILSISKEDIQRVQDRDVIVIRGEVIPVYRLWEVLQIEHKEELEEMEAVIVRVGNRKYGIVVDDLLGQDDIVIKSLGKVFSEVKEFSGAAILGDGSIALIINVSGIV

CheA (from UniProt Q56310)
Kd: 0.2 µM
